B1: ACS103 Fab (Fab, V domains shown)
VH: QVQLVQSGAEVKRPGASVRVSCEASGYRFTAYHIHWLRQAPGQGLEWMGWVNTLTSGVNYGWKFQGRVKMTRERSIDTDTAYLDLSGLRLDDTAVYYCARGNGKSDDERSTYQYFGPWGQGTLVTVSS
VL: QTVVTQPASVSGSPGQSITISCAGSSSDIGSYDYVSWYQQHPGKAPKVVIYDVTKRPSDISHRFSASKSGNTASLTISGLQPEDEAQYRCCTYAQTVLCGGGTKLTVL
B2: ACS101 Y100fW mutant monoclonal antibody (IgG) (antibody, V domains shown)
VH: EVQLLESGAEVKKPGASVRVSCEASGYTFTKYFIHWVRQAPGHGLEWIGWINTLTSGVNYARNFQGRLTLTRDLSTETVYMDLRNLKSDDTAVYYCARGGRGYDEPWGAWTWLDPWGQGSLVTVSS
VL: SYELTQPASVSGSPGQSITISCTGSSIGSYDLVSWYQQYPGKAPKVIIFEVSKRPSGVSHRFSGSKSGNTAALTISGLQVEDEAIYHCYSYDDMIIFGGGTRLTVL

How the values were obtained:
[1] = molecular target: T1, AMC009 SOSIP trimer (SOSIP version not stated, negative stain EM) (HIV-1); test: negative stain electron microscopy; settings: both partners purified
T1 construct: copies: 3 + 3

[2] = molecular target: AMC009 SOSIP trimer (SOSIPv4.2) (HIV-1); test: cell-based or functional assay

Binder	stoichiometry N [1]	neutralization of the AMC009 virus (TZM-bl cells), IC50 relative to ACS101 [2]
B1	3 Fabs per trimer	
B2		~12 fold
